# Test results: the supplement of paper PMC10567573
# ± gives the standard deviation.
# Test: protein stability index of a GFP-peptide fusion (GPS, HEK-293T) (PSI 1-6); higher = more stable
# [1] = treatment: DMSO, c terminus: a fixed tail appended
# [2] = treatment: MLN4924 1 uM, 8 h, c terminus: a fixed tail appended
# [3] = treatment: DMSO, c terminus: native
# [4] = treatment: MLN4924 1 uM, 8 h, c terminus: native
# 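Also: 24-mer peptide tiles fused after GFP, lentivirally expressed, FACS-sorted into six equal bins by GFP/DsRed ratio, decoded by Illumina sequencing, PSI is the read-weighted mean bin number.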
Sequence,protein stability index [1],protein stability index [2],protein stability index [3],protein stability index [4]
VAGTMESPFSPGLFHRLDEDWDSA [ATF6],4.38 ± 0.11,4.32 ± 0.2,–,–
ACGGGHLLPYFYIIYMAILLTHRC [DHCR7],2.8 ± 0.18,3.07 ± 0.19,–,–
KKVSKAAILARIKRTGDGNYKSG [SCD],–,–,2.88 ± 1.2,3.28 ± 0.21
ARYYLVQGLIEDCQLALQQKRETL [KCTD13],2.11 ± 0.19,2.19 ± 0.24,–,–
LPSVPVSVPASDPRSCSSGPAGPY [PLEKHN1],4.35 ± 0.21,4.39 ± 0.17,–,–
GKVIVWDSFTTNKEHAVTMPCTWV [GNB5],2.55 ± 0.37,2.27 ± 0.36,–,–
SQKATRECEKSALTPGFSDNAIML [FAN1],3.85 ± 0.22,3.98 ± 0.17,–,–
PIYGLRQSILLNTRLQDCYVDSPA [C22orf31],2.69 ± 0.2,2.55 ± 0.38,–,–
RERLGEIHTLPLPASLKAYLLYQ [SPSB1],–,–,2.3 ± 0.32,2.26 ± 0.27
HIFGDLDSYIPLHEDLLTRIGEAT [NET1],2.96 ± 0.14,2.93 ± 0.17,–,–
RTLKSYLGLTNQSRRYNRKEPAEF [ZNF649],3.09 ± 0.31,3.05 ± 0.48,–,–
LRLLQHTPSARRNYRIAGARLMRS [C6orf223],2.99 ± 0.22,3.08 ± 0.32,–,–
ACIVVLDRTSHRLHTANLGDSGFL [PPTC7],2.68 ± 0.48,2.24 ± 0.43,–,–
DGEILFSLLQKVSPVAHKHLSRQK [TBC1D10A],2.36 ± 0.11,2.48 ± 0.37,–,–
ALTGPVVDIVTGHARLSDIWAKTP [DHCR7],2.63 ± 0.21,2.71 ± 0.17,–,–
KGLNARMMRGLSYSLTTSSTHKSS [RAB40A],3.39 ± 0.28,3.52 ± 0.32,–,–
IYGMEGIPEKDMDERRRLLEQKTQ [ZNF207],4.6 ± 0.17,4.69 ± 0.15,–,–
HLEGYHGTAGDSMSYHSGSVFSAR [TNXB],3.16 ± 0.43,3.47 ± 0.44,–,–
AEHQFSFMEKRNQWLVSQLSAASP [TRAF3IP2],3.02 ± 0.39,3.23 ± 0.37,–,–
GDESSLLLNAASTVARPVFTEYQA [RHOBTB3],3.57 ± 0.29,3.52 ± 0.29,–,–
EDRKLPAPGADVKVHRARKTMPKS [EHMT1],5.28 ± 0.31,5.19 ± 0.18,–,–
MGWFNNEVGSMKIQSGAWVCYQYP [CRYBA1],2.74 ± 0.73,2.61 ± 0.29,–,–

Sequence,protein stability index [1],protein stability index [2],protein stability index [3],protein stability index [4]
GKGWKATRLFHDSAVTSVRILQDE [DCAF4],3.39 ± 0.21,3.67 ± 0.34,–,–
GNKCDLEDERVVGKEQGQNLARQW [RAP1B],4.7 ± 0.12,4.73 ± 0.14,–,–
TVGFLDEAIQPYRDRLRSRLEALS [TRIM15],2.66 ± 0.27,2.77 ± 0.39,–,–
AINNLVLQGCSSIGLRLVLEYLYT [KLHL14],3.15 ± 0.55,3.04 ± 0.31,–,–
HFPASPFWSVMFFLMLINLGLGSM [SLC6A17],3.67 ± 0.42,3.4 ± 0.25,–,–
LYQKQPKIGYHLLYYLRASKAAAG [INTS3],2.55 ± 0.31,2.25 ± 0.33,–,–
VQKLVKVCTDTDRWSLISLSNKNG [TENT5C],2.64 ± 0.034,2.85 ± 0.26,–,–
AFEPEALGNLVEGLDFHRFYFENL [CAMK2A],2.51 ± 0.18,2.61 ± 0.3,–,–
RRFNFDTDRPLLSTLEESVVRICC [SMG5],2.17 ± 0.25,2.19 ± 0.22,–,–
MQLKSPMPSSTTQKDSYQPPGNVY [SPAG8],4.13 ± 0.17,4.14 ± 0.16,–,–
TQYVRHSSDPFYTPEPDTCHELLG [TPH1],3.63 ± 0.35,4 ± 0.32,–,–
KSSILTRAGEQRKRSQSMKSYPSS [CLCN6],4.46 ± 0.25,4.6 ± 0.18,–,–
APPQGSCGDELPWTLQRRLTRLRT [PLEKHN1],3.33 ± 0.26,3.51 ± 0.44,–,–
NLLSPLLTGTESPFDLEQQWQDLM [NFE2L1],3.12 ± 0.21,3.17 ± 0.041,–,–
FRLVEKSCPEGDASECPQATNAKD [PPEF2],5.11 ± 0.21,5.41 ± 0.28,–,–
QVPSGEDQTALSLEECLRLLEATC [NFE2L1],4.02 ± 0.98,3.96 ± 0.31,–,–
YECTVCKKRFTRRSHLIGHQRTHS [ZNF449],4.86 ± 0.39,5.05 ± 0.24,–,–
EGATLLLRGLCANTVLRFLDLKGN [LRRC45],2.6 ± 0.4,2.98 ± 0.77,–,–
SQQQNMMQDYVRTGTYQRAILQNH [CARM1],3.21 ± 0.27,3.12 ± 0.23,–,–
RLEALSTERDEIEDVKCQEDQKLQ [TRIM15],5.21 ± 0.32,5.66 ± 0.16,–,–
HRWQVDLQLGDGGGCTVGVAGEGV [TRIM15],3.5 ± 0.27,3.38 ± 0.43,–,–
KGKTAVDTVFRFDPRYNKWMQVAS [KLHL13],2.4 ± 0.3,2.94 ± 0.5,–,–

Sequence,protein stability index [1],protein stability index [2],protein stability index [3],protein stability index [4]
NCKRERDARVKRKLRGPEPAATEA [TBX6],4.84 ± 0.42,4.66 ± 0.22,–,–
SVHNDLWESWFVPDPAGIFKLNHH [GLT8D2],2.38 ± 0.18,2.53 ± 0.22,–,–
VSDPQHAARLLRALSSFREESRFC [GAN],2.59 ± 0.068,2.72 ± 0.19,–,–
VGDLMSPFDQSGLGAEESLGLLDD [ATF4],5.17 ± 0.27,4.89 ± 0.28,–,–
ENQLVRKQDVLGPSTTPPAHSSSN [SASS6],5.19 ± 0.21,5.29 ± 0.069,–,–
EEVRQLLETMARNEVIADINCKGR [OSBPL1A],3.16 ± 0.33,3.01 ± 0.46,–,–
TDRIAAAQYSVTGSAVARAVCKAT [SNAP91],3.9 ± 0.24,3.94 ± 0.19,–,–
DPNSQVGACIVNSENKIVGIGYNG [DCTD],4.56 ± 0.15,4.56 ± 0.48,–,–
QHAVQELTKAATSGVGIDGEVLSY [RHOBTB1],4.5 ± 0.25,4.57 ± 0.14,–,–
AEKETELSLQKEQLQLKIIEIEDE [TRIM29],5.42 ± 0.26,5.45 ± 0.26,–,–
LREIPETTPIEEVKGLFKSENCPK [LARP4],5.06 ± 0.19,5.1 ± 0.33,–,–
EEGFMTAELAGVIKRLWKDSGVQA [GNAI1],3.19 ± 0.49,3.53 ± 0.58,–,–
LSGVEEELQRTKQEVLSLRRENST [SASS6],5.07 ± 0.22,5 ± 0.21,–,–
HDPLWRRHCKKYWLISEEEKTQKN [FBXO3],3.56 ± 0.45,3.99 ± 0.34,–,–
FNYRYFEVEEADGNKQWWFGGGCD [CPOX],2.48 ± 0.23,2.58 ± 0.28,–,–
ALDLAREFLPQGPVAMRVAKLAIN [AUH],2.89 ± 0.18,2.83 ± 0.25,–,–
PGGNVKGVWAPPAPGFGEDVPNRL [BEX5],3.95 ± 0.18,4.16 ± 0.23,–,–
FFINEAMELKVGDFGLAARLEPLE [PLK2],2.61 ± 0.14,2.68 ± 0.18,–,–
GCRLPSISSTTCGRQLEKVPEKRD [SPATS1],3.98 ± 0.36,3.84 ± 0.22,–,–
VASMVLGECRQMSSSSQIGNDSFQ [CLCN6],2.87 ± 0.32,2.67 ± 0.27,–,–
VENECYQVFLDRINRADYCPECYP [TOR1AIP2],2.43 ± 0.42,2.62 ± 0.27,–,–
